What was measured:
[1] = tested on: recombinant human PAD2 and PAD4; test: Citrullination site mapping by trypsin digestion and mass spectrometry; protein-level modifications over native, PAD2- and PAD4-citrullinated samples combined; assay type: biochemical; settings: trypsin digest, Sequest HT search; co-identified proteins in the fibrinogen and vimentin samples (native, PAD2-cit, PAD4-cit); not split by sample or enzyme
Description: (§1) Description: Raw mass spectrometry data for proteolytic mapping of fibrinogen, vimentin, and hnRNP A2/B1 by cathepsins B, S, and H (sheets 1-6); citrullination site mapping of fibrinogen and vimentin by trypsin digestion (sheets 7-8); and the natural antigen processing assay with native, PAD2-citrullinated (PAD2-cit), and PAD4-citrullinated (PAD4-cit) fibrinogen (sheets 9-11).

PAD2 and PAD4 = test: Citrullination site mapping of fibrinogen and vimentin by trypsin digestion and mass spectrometry (protein-level sheet, one search over native, PAD2-cit and PAD4-cit samples); assay type: biochemical, human; settings: modified residues found per protein; Deamidated [R..] = deamidated (citrullinated) arginine positions; trypsin digest, Sequest HT; not split by sample (native, PAD2-citrullinated, PAD4-citrullinated fibrinogen and vimentin)
Description: as §1

Row | Molecule | Modifications (Deamidated [R...] = citrullinated arginine positions found) [1] | Modifications (PAD2 and PAD4)
1 | Keratin, type II cuticular Hb6 (protein, UniProt O43790 1-486, looked up) Keratin, type II cuticular Hb6: MTCGSYCGGRAFSCISACGPRPGRCCITAAPYRGISCYRGLTGGFGSHSVCGGFRAGSCGRSFGYRSGGVCGPSPPCITTVSVNESLLTPLNLEIDPNAQCVKQEEKEQIKSLNSRFAAFIDKVRFLEQQNKLLETKLQFYQNRECCQSNLEPLFEGYIETLRREAECVEADSGRLASELNHVQEVLEGYKKKYEEEVSLRATAENEFVALKKDVDCAYLRKSDLEANVEALIQEIDFLRRLYEEEIRVLQSHISDTSVVVKLDNSRDLNMDCIIAEIKAQYDDIVTRSRAEAESWYRSKCEEMKATVIRHGETLRRTKEEINELNRMIQRLTAEVENAKCQNSKLEAAVAQSEQQGEAALSDARCKLAELEGALQKAKQDMACLIREYQEVMNSKLGLDIEIATYRRLLEGEEQRLCEGVGSVNVCVSSSRGGVVCGDLCASTTAPVVSTRVSSVPSNSNVVVGTTNACAPSARVGVCGGSCKRC | Deamidated [R125] | 
2 | Interferon alpha-21 (protein, UniProt P01568 24-189, looked up) Interferon alpha-21: CDLPQTHSLGNRRALILLAQMGRISPFSCLKDRHDFGFPQEEFDGNQFQKAQAISVLHEMIQQTFNLFSTKDSSATWEQSLLEKFSTELNQQLNDLEACVIQEVGVEETPLMNVDSILAVKKYFQRITLYLTEKKYSPCAWEVVRAEIMRSFSLSKIFQERLRRKE | Deamidated [R56] | 
3 | Fibrinogen a: α chain of human fibrinogen (Cayman Chemical), RA autoantigen; native or citrullinated by PAD2 or PAD4 (protein) MFSMRIVCLVLSVVGTAWTADSGEGDFLAEGGGVRGPRVVERHQSACKDSDWPFCSDEDWNYKCPSGCRMKGLIDEVNQDFTNRINKLKNSLFEYQKNNKDSHSLTTNIMEILRGDFSSANNRDNTYNRVSEDLRSRIEVLKRKVIEKVQHIQLLQKNVRAQLVDMKRLEVDIDIKIRSCRGSCSRALAREVDLKDYEDQQKQLEQVIAKDLLPSRDRQHLPLIKMKPVPDLVPGNFKSQLQKVPPEWKALTDMPQMRMELERPGGNEITRGGSTSYGTGSETESPRNPSSAGSWNSGSSGPGSTGNRNPGSSGTGGTATWKPGSSGPGSTGSWNSGSSGTGSTGNQNPGSPRPGSTGTWNPGSSERGSAGHWTSESSVSGSTGQWHSESGSFRPDSPGSGNARPNNPDWGTFEEVSGNVSPGTRREYHTEKLVTSKGDKELRTGKEKVTSGSTTTTRRSCSKTVTKTVIGPDGHKEVTKEVVTSEDGSDCPEAMDLGTL |  | Deamidated [R42; R84; R114; R123; R129; R160; R216; R218; R258; R263; R271; R287; R308; R510; R512; R547; R573; R591]
4 | Complement factor H-related protein 5 (protein, UniProt Q9BXR6 19-569, looked up) Complement factor H-related …: EGTLCDFPKIHHGFLYDEEDYNPFSQVPTGEVFYYSCEYNFVSPSKSFWTRITCTEEGWSPTPKCLRMCSFPFVKNGHSESSGLIHLEGDTVQIICNTGYSLQNNEKNISCVERGWSTPPICSFTKGECHVPILEANVDAQPKKESYKVGDVLKFSCRKNLIRVGSDSVQCYQFGWSPNFPTCKGQVRSCGPPPQLSNGEVKEIRKEEYGHNEVVEYDCNPNFIINGPKKIQCVDGEWTTLPTCVEQVKTCGYIPELEYGYVQPSVPPYQHGVSVEVNCRNEYAMIGNNMITCINGIWTELPMCVATHQLKRCKIAGVNIKTLLKLSGKEFNHNSRIRYRCSDIFRYRHSVCINGKWNPEVDCTEKREQFCPPPPQIPNAQNMTTTVNYQDGEKVAVLCKENYLLPEAKEIVCKDGRWQSLPRCVESTAYCGPPPSINNGDTTSFPLSVYPPGSTVTYRCQSFYKLQGSVTVTCRNKQWSEPPRCLDPCVVSEENMNKNNIQLKWRNDGKLYAKTGDAVEFQCKFPHKAMISSPPFRAICQEGKFEYPICE | Deamidated [R69] | 

— article PMC9958131 (Nature Communications, 2023)
